How the values were obtained:
[1] = target: recombinant Srr2 binding region (rSrr2-BR) (Streptococcus agalactiae (GBS) strain BM110) (UniProt Q3S2Y8); experiment: SPR; rSrr2 proteins amine-coupled to a CM5 chip (Biacore X-100); Fn injected; 25 °C, HEPES-EP+ pH 7.4, 0.15 M NaCl, 30 uL/min; steady-state fit, 1:1 model
[2] = target: recombinant Srr2 binding region (rSrr2-BR) (Streptococcus agalactiae (GBS) strain BM110) (UniProt Q3S2Y8); experiment: ELISA; Srr2 proteins coated on microtiter wells (1 ug/well, 0.1 M sodium carbonate pH 9.5); soluble Fn (up to 240 nM) or Fbg (up to 7.5 nM) for 1 h; detected with mouse anti-Fn or anti-Fbg IgG; apparent Kd; in a further set increasing NaCl (0 to 1 M) strongly impaired the binding to rSrr2-BR
[3] = target: human plasma fibronectin (Fn) (human); experiment: ELISA; apparent; soluble Srr2-BR on immobilized Fn
human plasma fibronectin (Fn) (human), sequence (P02751 other isoform, or with tags, fused parts or gaps, chain 1 of 2): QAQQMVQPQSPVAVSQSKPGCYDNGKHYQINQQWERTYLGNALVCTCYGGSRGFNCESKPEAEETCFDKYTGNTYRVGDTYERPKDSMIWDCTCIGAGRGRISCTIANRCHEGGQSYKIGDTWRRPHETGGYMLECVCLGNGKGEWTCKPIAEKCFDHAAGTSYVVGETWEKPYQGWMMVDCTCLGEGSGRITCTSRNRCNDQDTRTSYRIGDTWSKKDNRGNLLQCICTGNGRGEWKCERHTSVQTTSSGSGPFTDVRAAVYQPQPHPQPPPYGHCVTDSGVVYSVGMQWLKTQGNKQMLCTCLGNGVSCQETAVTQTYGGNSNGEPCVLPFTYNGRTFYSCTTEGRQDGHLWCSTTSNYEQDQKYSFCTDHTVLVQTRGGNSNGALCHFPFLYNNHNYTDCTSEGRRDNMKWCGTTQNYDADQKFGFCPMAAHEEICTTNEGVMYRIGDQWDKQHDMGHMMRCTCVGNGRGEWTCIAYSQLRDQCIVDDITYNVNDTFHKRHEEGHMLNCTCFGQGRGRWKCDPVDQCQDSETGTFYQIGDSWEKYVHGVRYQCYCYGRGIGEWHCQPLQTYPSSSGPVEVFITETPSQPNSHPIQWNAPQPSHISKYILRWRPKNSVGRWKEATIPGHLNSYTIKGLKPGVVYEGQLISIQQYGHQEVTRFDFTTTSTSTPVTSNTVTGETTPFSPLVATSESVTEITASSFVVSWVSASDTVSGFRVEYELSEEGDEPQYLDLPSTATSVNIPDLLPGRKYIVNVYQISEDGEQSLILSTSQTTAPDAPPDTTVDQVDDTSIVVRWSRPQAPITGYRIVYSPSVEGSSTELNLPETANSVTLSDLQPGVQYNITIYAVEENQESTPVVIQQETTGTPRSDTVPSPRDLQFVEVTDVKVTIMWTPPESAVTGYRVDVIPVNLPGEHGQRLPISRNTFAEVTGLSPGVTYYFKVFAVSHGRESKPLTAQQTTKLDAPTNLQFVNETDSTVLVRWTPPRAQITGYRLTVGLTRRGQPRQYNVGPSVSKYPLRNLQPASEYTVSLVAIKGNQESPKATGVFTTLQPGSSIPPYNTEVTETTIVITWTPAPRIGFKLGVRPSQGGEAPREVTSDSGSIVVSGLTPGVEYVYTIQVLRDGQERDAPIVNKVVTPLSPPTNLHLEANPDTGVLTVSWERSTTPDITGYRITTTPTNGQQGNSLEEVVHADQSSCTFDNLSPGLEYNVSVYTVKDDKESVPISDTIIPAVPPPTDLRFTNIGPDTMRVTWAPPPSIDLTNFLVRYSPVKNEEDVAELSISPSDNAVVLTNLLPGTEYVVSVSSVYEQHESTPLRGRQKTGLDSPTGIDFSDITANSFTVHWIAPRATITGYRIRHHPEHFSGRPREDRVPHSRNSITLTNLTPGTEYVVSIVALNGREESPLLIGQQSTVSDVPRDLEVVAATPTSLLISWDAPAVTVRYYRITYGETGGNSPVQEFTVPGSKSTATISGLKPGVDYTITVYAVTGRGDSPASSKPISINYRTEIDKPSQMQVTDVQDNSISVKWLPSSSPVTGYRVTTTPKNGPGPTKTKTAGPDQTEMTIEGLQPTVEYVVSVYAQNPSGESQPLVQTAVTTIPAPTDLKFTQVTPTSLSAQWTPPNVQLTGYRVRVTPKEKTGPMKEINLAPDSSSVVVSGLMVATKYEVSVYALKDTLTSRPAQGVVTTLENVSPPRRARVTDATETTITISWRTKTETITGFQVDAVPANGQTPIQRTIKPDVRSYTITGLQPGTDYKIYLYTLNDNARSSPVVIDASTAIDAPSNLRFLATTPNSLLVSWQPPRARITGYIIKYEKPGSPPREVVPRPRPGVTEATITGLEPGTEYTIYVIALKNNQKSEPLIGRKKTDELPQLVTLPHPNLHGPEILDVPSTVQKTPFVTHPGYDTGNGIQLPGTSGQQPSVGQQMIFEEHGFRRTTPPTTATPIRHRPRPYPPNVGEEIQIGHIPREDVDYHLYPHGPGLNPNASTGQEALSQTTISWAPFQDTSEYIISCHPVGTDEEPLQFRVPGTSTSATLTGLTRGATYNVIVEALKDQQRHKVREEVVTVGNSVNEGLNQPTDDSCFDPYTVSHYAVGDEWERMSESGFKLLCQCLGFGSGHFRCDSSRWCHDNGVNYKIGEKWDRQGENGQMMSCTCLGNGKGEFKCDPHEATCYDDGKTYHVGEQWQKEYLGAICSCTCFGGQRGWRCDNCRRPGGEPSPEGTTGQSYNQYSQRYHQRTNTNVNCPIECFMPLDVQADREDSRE
human plasma fibronectin (Fn) (human), sequence (P02751 other isoform, or with tags, fused parts or gaps, chain 2 of 2): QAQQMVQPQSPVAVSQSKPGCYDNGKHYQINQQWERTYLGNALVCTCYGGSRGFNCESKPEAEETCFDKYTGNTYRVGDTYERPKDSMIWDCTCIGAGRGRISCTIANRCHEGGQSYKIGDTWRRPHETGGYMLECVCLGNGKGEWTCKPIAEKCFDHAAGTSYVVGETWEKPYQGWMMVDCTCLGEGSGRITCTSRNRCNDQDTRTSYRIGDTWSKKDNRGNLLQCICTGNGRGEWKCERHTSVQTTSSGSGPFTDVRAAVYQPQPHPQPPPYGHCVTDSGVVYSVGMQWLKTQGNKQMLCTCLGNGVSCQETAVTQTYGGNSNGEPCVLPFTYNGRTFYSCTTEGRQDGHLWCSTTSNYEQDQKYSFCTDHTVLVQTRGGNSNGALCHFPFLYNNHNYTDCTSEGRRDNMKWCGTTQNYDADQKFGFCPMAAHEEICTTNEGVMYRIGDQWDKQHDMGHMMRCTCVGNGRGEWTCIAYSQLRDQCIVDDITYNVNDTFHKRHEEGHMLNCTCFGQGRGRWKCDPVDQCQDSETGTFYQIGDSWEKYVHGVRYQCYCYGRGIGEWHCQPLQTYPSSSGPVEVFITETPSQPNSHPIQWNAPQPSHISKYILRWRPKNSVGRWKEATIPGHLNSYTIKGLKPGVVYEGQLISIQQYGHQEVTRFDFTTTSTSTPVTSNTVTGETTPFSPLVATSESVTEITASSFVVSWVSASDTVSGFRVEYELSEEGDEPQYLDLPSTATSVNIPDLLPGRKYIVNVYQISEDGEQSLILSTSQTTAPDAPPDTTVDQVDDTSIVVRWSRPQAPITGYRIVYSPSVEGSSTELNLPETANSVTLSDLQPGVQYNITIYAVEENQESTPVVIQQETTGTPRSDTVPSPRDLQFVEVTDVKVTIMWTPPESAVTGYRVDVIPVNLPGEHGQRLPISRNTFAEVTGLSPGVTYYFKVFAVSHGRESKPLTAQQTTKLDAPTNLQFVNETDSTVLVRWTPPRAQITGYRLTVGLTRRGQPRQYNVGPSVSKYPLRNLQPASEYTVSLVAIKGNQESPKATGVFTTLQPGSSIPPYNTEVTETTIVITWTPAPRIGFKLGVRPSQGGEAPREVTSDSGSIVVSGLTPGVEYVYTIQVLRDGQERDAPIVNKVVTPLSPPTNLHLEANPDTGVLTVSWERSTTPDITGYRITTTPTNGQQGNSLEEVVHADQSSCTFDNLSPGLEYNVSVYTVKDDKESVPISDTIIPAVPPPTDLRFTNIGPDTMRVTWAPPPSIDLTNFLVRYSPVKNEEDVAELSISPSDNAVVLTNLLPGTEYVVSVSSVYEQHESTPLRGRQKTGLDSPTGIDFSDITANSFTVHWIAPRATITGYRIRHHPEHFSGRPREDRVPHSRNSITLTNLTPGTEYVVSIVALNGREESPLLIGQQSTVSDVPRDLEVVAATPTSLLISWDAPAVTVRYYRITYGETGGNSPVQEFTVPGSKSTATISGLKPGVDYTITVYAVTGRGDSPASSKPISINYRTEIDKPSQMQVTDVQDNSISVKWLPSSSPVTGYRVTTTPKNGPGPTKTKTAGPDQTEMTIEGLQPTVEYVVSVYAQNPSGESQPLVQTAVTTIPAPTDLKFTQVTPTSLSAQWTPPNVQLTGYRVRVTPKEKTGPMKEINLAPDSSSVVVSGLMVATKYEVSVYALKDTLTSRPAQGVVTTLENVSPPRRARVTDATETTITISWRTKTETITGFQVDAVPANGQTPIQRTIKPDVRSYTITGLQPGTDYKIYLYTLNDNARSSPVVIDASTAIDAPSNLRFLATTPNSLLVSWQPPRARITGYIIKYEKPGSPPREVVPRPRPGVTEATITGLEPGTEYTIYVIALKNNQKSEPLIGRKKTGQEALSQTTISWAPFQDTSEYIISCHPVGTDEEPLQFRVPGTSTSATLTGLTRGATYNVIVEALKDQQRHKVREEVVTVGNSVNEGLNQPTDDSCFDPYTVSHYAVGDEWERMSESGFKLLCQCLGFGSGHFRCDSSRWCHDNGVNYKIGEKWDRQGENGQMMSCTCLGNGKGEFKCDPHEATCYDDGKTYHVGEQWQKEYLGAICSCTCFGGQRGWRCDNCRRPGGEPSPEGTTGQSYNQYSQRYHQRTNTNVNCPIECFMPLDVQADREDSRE

human fibrinogen (Fbg) = human fibrinogen (Fbg) (human, UniProt P02671 36-866); P02675 45-491; P02679 27-453, Plasma-derived, disulfide-linked hexamer, glycosylated. Chains are the circulating forms by convention: A-alpha 610 aa, B-beta 461 aa, gamma-A 411 aa (the canonical P02679 sequence is gamma-B, so gamm); experiment: ELISA; Srr2 proteins coated on microtiter wells (1 ug/well, 0.1 M sodium carbonate pH 9.5); soluble Fn (up to 240 nM) or Fbg (up to 7.5 nM) for 1 h; detected with mouse anti-Fn or anti-Fbg IgG; apparent Kd; in a further set increasing NaCl (0 to 1 M) strongly impaired the binding to rSrr2-BR; conditions: both partners purified

For “human plasma fibronectin (Fn) (natural protein)”, the Kd [1] was 92 nM and the Kd [2] was 30 nM.

B1: recombinant Srr2 binding region (rSrr2-BR) (domain or fragment)
chain: EAATTARVQPRAMRVVSSASDMETLPAALISGEGDVTTVQGQDVTDKLQNLDIKLSGGVQAKAGVINMDKSESMHMSLKFTIDSVNRGDTFEIKLSDNIDTNGASNYSIVEPIKSPTGEVYATGIYDSQKKSIVYSFTDFAASKNNINGILDIPLWPDDTTVQNTKEDVLFSVKIKDQEATIKETVKYDPPVRIDFAGGVSVDSRITNIDDVGKKMTYISQINVDGKSLYNYNGLYTRIYNYSKESTADLKNSTIKIYKTTSDNIVESMVQDYSSMEDVTSKFANSYPEKGWYDIYWGQFIASNETYVIVVETPFTNAVTLNTTLSDYNENNGVEHNHTYSSESGYSDVNAQ
B1 was tested, and the Kd [3] was 629 nM and the Kd (human fibrinogen (Fbg)) was 0.45 ± 0.02 nM.

Reference: publication PMC11193222, “The serine-rich repeat glycoprotein Srr2 mediates Streptococcus agalactiae interaction with host fibronectin” (BMC Microbiology, 2024)
